1 molecule from paper doi:10.1101/2024.05.23.595586 (bioRxiv, 2024) can be followed below.

In this experiment the target is T1, MBP-TREM2 N79Q (MBP fused to TREM2 19-134) (human, UniProt Q9NZC2 19-134, N79Q).
T1 sequence (looked up): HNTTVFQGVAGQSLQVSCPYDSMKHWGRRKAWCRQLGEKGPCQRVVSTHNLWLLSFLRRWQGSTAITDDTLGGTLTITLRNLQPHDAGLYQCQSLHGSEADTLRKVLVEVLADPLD
The experiment can be described thus: crystal structure.

As for DAEFRHDS [Amyloid beta peptide (1-8)], the binding result is recorded as “binds”.
